B1: SFRS1 (parent)
chain: YSPRRSRGSPRYSPRHSRSRSRT
B2: TPD52L2 (parent)
chain: EAEEEELRAELTKVEEEIVTLRQV

Variants of: B1
Assay: protein stability index of a GFP-peptide fusion (GPS, HEK-293T) (PSI 1-6); higher = more stable
Settings: c terminus: native
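Further: lentivirally expressed fusions sorted by FACS into six bins by GFP to DsRed ratio, PSI derived from sequencing read proportions per bin multiplied by bin number.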

Variant	protein stability index
YSPRRSRGSPRYSPRHSRSRSRQ [T23Q]	2.61
YSPRRSRGSPRYSPRHSRSRSRW [T23W]	3.79
YSPRRSRGSPRYSPRHSRSRSRF [T23F]	4.22
YSPRRSRGSPRYSPRHSRSRSRK [T23K]	4.73
YSPRRSRGSPRYSPRHSRSRSRS [T23S]	3.4
YSPRRSRGSPRYSPRHSRSRSRE [T23E]	4.56
YSPRRSRGSPRYSPRHSRSRSRI [T23I]	4.04
YSPRRSRGSPRYSPRHSRSRSRR [T23R]	4.22
YSPRRSRGSPRYSPRHSRSRSRL [T23L]	1.96
YSPRRSRGSPRYSPRHSRSRSRM [T23M]	3.33
YSPRRSRGSPRYSPRHSRSRSRP [T23P]	4.23
YSPRRSRGSPRYSPRHSRSRSRY [T23Y]	4.44
YSPRRSRGSPRYSPRHSRSRSRN [T23N]	3.17
YSPRRSRGSPRYSPRHSRSRSRH [T23H]	2.64
YSPRRSRGSPRYSPRHSRSRSRD [T23D]	3.32
YSPRRSRGSPRYSPRHSRSRSRV [T23V]	3.69
YSPRRSRGSPRYSPRHSRSRSRC [T23C]	3.5
YSPRRSRGSPRYSPRHSRSRSET [R22E]	4.25
YSPRRSRGSPRYSPRHSRSRSCT [R22C]	3.62
YSPRRSRGSPRYSPRHSRSRSGT [R22G]	3.27
YSPRRSRGSPRYSPRHSRSRSKT [R22K]	3.77
YSPRRSRGSPRYSPRHSRSRSTT [R22T]	3.97
YSPRRSRGSPRYSPRHSRSRSNT [R22N]	3.46
YSPRRSRGSPRYSPRHSRSRSDT [R22D]	3.85

Variant	protein stability index
YSPRRSRGSPRYSPRHSRSRSIT [R22I]	3.8
YSPRRSRGSPRYSPRHSRSRSQT [R22Q]	4.06
YSPRRSRGSPRYSPRHSRSRSPT [R22P]	4.04
YSPRRSRGSPRYSPRHSRSRSLT [R22L]	4.25
YSPRRSRGSPRYSPRHSRSRSMT [R22M]	3.8
YSPRRSRGSPRYSPRHSRSRSWT [R22W]	3.32
YSPRRSRGSPRYSPRHSRSRSVT [R22V]	4.05
YSPRRSRGSPRYSPRHSRSRSFT [R22F]	3.58
YSPRRSRGSPRYSPRHSRSRSST [R22S]	3.5
YSPRRSRGSPRYSPRHSRSRSAT [R22A]	2.02
YSPRRSRGSPRYSPRHSRSRSHT [R22H]	4.14
YSPRRSRGSPRYSPRHSRSRSYT [R22Y]	3.9
YSPRRSRGSPRYSPRHSRSLSRT [R20L]	4.08
YSPRRSRGSPRYSPRHSRSYSRT [R20Y]	2.9
YSPRRSRGSPRYSPRHSRSWSRT [R20W]	1.77
YSPRRSRGSPRYSPRHSRSGSRT [R20G]	3.79
YSPRRSRGSPRYSPRHSRSMSRT [R20M]	3.4
YSPRRSRGSPRYSPRHSRSVSRT [R20V]	3.66
YSPRRSRGSPRYSPRHSRSNSRT [R20N]	4.44
YSPRRSRGSPRYSPRHSRSQSRT [R20Q]	4.04
YSPRRSRGSPRYSPRHSRSHSRT [R20H]	4.12
YSPRRSRGSPRYSPRHSRSESRT [R20E]	4.48
YSPRRSRGSPRYSPRHSRSKSRT [R20K]	3.85
YSPRRSRGSPRYSPRHSRSTSRT [R20T]	3.6

Variant	protein stability index
YSPRRSRGSPRYSPRHSRSDSRT [R20D]	4.36
YSPRRSRGSPRYSPRHSRSPSRT [R20P]	3.81
YSPRRSRGSPRYSPRHSRSISRT [R20I]	3.69
YSPRRSRGSPRYSPRHSRSSSRT [R20S]	4.21
YSPRRSRGSPRYSPRHSRSFSRT [R20F]	2.71
YSPRRSRGSPRYSPRHSRSRWRT [S21W]	4.19
YSPRRSRGSPRYSPRHSRSRFRT [S21F]	3.95
YSPRRSRGSPRYSPRHSRSRART [S21A]	3.41
YSPRRSRGSPRYSPRHSRSRYRT [S21Y]	4
YSPRRSRGSPRYSPRHSRSRVRT [S21V]	3.49
YSPRRSRGSPRYSPRHSRSRHRT [S21H]	3.79
YSPRRSRGSPRYSPRHSRSRLRT [S21L]	3.23
YSPRRSRGSPRYSPRHSRSRQRT [S21Q]	3.62
YSPRRSRGSPRYSPRHSRSRPRT [S21P]	4.3
YSPRRSRGSPRYSPRHSRSRIRT [S21I]	3.28
YSPRRSRGSPRYSPRHSRSRERT [S21E]	3.8
YSPRRSRGSPRYSPRHSRSRTRT [S21T]	3.34
YSPRRSRGSPRYSPRHSRSRDRT [S21D]	3.79
YSPRRSRGSPRYSPRHSRSRNRT [S21N]	3.98
YSPRRSRGSPRYSPRHSRSRRRT [S21R]	4.2
YSPRRSRGSPRYSPRHSRSRKRT [S21K]	3.79
YSPRRSRGSPRYSPRHSRSRCRT [S21C]	3.06
YSPRRSRGSPRYSPRHSRSRMRT [S21M]	3.94
YSPRRSRGSPRYSPRHSRSRGRT [S21G]	2.67

Variants of: B2
Assay: as above
Settings: c terminus: a fixed tail appended

Variant	protein stability index
ENEEEELRAELTKVEEEIVTLRQV [A2N]	4.25
ETEEEELRAELTKVEEEIVTLRQV [A2T]	2.8
ESEEEELRAELTKVEEEIVTLRQV [A2S]	3.42
ECEEEELRAELTKVEEEIVTLRQV [A2C]	3.17
EKEEEELRAELTKVEEEIVTLRQV [A2K]	3.04
EHEEEELRAELTKVEEEIVTLRQV [A2H]	3.23
EIEEEELRAELTKVEEEIVTLRQV [A2I]	2.67
EPEEEELRAELTKVEEEIVTLRQV [A2P]	4.03
EEEEEELRAELTKVEEEIVTLRQV [A2E]	4.6
EFEEEELRAELTKVEEEIVTLRQV [A2F]	3.45
EMEEEELRAELTKVEEEIVTLRQV [A2M]	2.8
EYEEEELRAELTKVEEEIVTLRQV [A2Y]	3.1
EREEEELRAELTKVEEEIVTLRQV [A2R]	3.29
ELEEEELRAELTKVEEEIVTLRQV [A2L]	2.93
EDEEEELRAELTKVEEEIVTLRQV [A2D]	4.7
EGEEEELRAELTKVEEEIVTLRQV [A2G]	4.06
EWEEEELRAELTKVEEEIVTLRQV [A2W]	2.88
EQEEEELRAELTKVEEEIVTLRQV [A2Q]	4.57
EVEEEELRAELTKVEEEIVTLRQV [A2V]	3.3
EALEEELRAELTKVEEEIVTLRQV [E3L]	2.76
EAVEEELRAELTKVEEEIVTLRQV [E3V]	3.22
EASEEELRAELTKVEEEIVTLRQV [E3S]	3.63
EAKEEELRAELTKVEEEIVTLRQV [E3K]	3.18

— the supplement of paper PMC10567573
